Among the data in US20180148504A1 are % of signal without MORAb-003 (MORAb-003 interference), Drug suppression of serum and Drug Suppression of Cal Signal values, retold here.

For assay [1], the target named is recombinant purified FRα (ECL assay calibrator) (human) (UniProt P15328). Put plainly: ECL sandwich competition; competitors 9F3 capture / 24F12 detection; FRα standard STD01; MORAb-003 10 µg/mL.
Assay [2] shares this target. The assay can be described thus: ECL sandwich competition; competitors 9F3 capture / 24F12 detection; FRα standard STD03; MORAb-003 10 µg/mL.
The target is the same in assay [3]. The assay can be described thus: ECL sandwich competition; competitors 9F3 capture / 24F12 detection; FRα standard STD03; MORAb-003 50 µg/mL.
The target is the same in assay [4]. The assay can be described thus: ECL sandwich competition; competitors 9F3 capture / 24F12 detection; FRα standard STD05; MORAb-003 50 µg/mL.
For assay [5] the target is unchanged. The assay can be described thus: ECL sandwich competition; competitors 9F3 capture / 24F12 detection; FRα standard STD07; MORAb-003 10 µg/mL.
Assay [6] addresses endogenous folate receptor alpha in human serum and plasma samples (human) (UniProt P15328). Put plainly: ECL sandwich capture 19D4.B7 / detection 19D2.G9; serum incubated overnight with 10 µg/mL MORAb-003.
For assay [7] the target is unchanged. Put plainly: ECL sandwich capture 24H8.D3 / detection 19D4.B7; serum incubated overnight with 10 µg/mL MORAb-003.
The target is the same in assay [8]. The assay can be described thus: ECL sandwich capture 26A9.C4 / detection 19D4.B7; serum incubated overnight with 10 µg/mL MORAb-003.
Assay [9] addresses recombinant purified FRα (ECL assay calibrator) (human) (UniProt P15328). Put plainly: ECL sandwich capture 6A2.G7 / detection 19D2.G9; calibrator incubated overnight with 10 µg/mL MORAb-003.
The target is the same in assay [10]. The assay can be described thus: ECL sandwich capture 6A2.G7 / detection 24H8.F3; calibrator incubated overnight with 10 µg/mL MORAb-003.
Assay [11] addresses endogenous folate receptor alpha in human serum and plasma samples (human) (UniProt P15328). The assay can be described thus: ECL sandwich capture 1C6.E12.G8 / detection 19D4.B7; serum incubated overnight with 10 µg/mL MORAb-003.
Assay [12] has the same target. The assay can be described thus: ECL sandwich capture 19D4.B7 / detection 1A8.G11.E7; serum incubated overnight with 10 µg/mL MORAb-003.
The target is the same in assay [13]. The assay can be described thus: ECL sandwich capture 1A8.G11.E7 / detection 19D4.B7; serum incubated overnight with 10 µg/mL MORAb-003.
Assay [14] deals with recombinant purified FRα (ECL assay calibrator) (human) (UniProt P15328). The assay can be described thus: ECL sandwich capture 19D4.B7 / detection 26A9.C4; calibrator incubated overnight with 10 µg/mL MORAb-003.
Assay [15] has the same target. Put plainly: ECL sandwich capture 24H8.D3 / detection 19D4.B7; calibrator incubated overnight with 10 µg/mL MORAb-003.
Assay [16] has the same target. The assay can be described thus: ECL sandwich capture 2F11.F8 / detection 19D4.B7; calibrator incubated overnight with 10 µg/mL MORAb-003.
The target is the same in assay [17]. Put plainly: ECL sandwich capture 6A2.G7 / detection 1C6.E12.G8; calibrator incubated overnight with 10 µg/mL MORAb-003.
For assay [18] the target is unchanged. Put plainly: ECL sandwich capture 6A2.G7 / detection 1D2.G8.G10; calibrator incubated overnight with 10 µg/mL MORAb-003.
The target is the same in assay [19]. The assay can be described thus: ECL sandwich capture 1A8.G11.E7 / detection 6A2.G7; calibrator incubated overnight with 10 µg/mL MORAb-003.
Assay [20] shares this target. Put plainly: ECL sandwich capture 19D4.B7 / detection 1C6.E12.G8; calibrator incubated overnight with 10 µg/mL MORAb-003.
For assay [21] the target is unchanged. The assay can be described thus: ECL sandwich capture 30G6.G6.G4.E9 / detection 24H8.F3; calibrator incubated overnight with 10 µg/mL MORAb-003.
The target is the same in assay [22]. The assay can be described thus: ECL sandwich capture 1C6.E12.G8 / detection 30G6.G6.G4.E9; calibrator incubated overnight with 10 µg/mL MORAb-003.
Assay [23] has the same target. Put plainly: ECL sandwich capture 1D2.G8.G10 / detection 30G6.G6.G4.E9; calibrator incubated overnight with 10 µg/mL MORAb-003.
Assay [24] has as its target endogenous folate receptor alpha in human serum and plasma samples (human) (UniProt P15328). Put plainly: ECL sandwich capture 6A2.G7 / detection 6A2.G7; serum incubated overnight with 10 µg/mL MORAb-003; no % sign in this cell.

Chain of recombinant purified FRα (ECL assay calibrator) (human) (P15328 25-234 limits assumed): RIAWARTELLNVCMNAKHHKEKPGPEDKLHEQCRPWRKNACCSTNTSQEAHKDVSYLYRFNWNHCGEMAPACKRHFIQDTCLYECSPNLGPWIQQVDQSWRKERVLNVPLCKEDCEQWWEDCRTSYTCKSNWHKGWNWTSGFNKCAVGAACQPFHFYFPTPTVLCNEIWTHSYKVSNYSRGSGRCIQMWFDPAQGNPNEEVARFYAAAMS
Chain of endogenous folate receptor alpha in human serum and plasma samples (human) (P15328 25-234 limits assumed, form in doubt): as the sequence (P15328 25-234 limits assumed) above

B1: farletuzumab (MORAb-003) (antibody, part only; not given: Constant regions, V domains shown, not shown: another chain or arm of the molecule)
VH: EVQLVESGGGVVQPGRSLRLSCSASGFTFSGYGLSWVRQAPGKGLEWVAMISSGGSYTYYADSVKGRFAISRDNAKNTLFLQMDSLRPEDTGVYFCARHGDDPAWFAYWGQGTPVTVSS
VL: DIQLTQSPSSLSASVGDRVTITCSVSSSISSNNLHWYQQKPGKAPKPWIYGTSNLASGVPSRFSGSGSGTDYTFTISSLQPEDIATYYCQQWSSYPYMYTFGQGTKVEIK
Consider B1, for which the % of signal without MORAb-003 (MORAb-003 interference) is 68% in assay [1]; 61% in assay [2]; 58% in assay [3]; 75% in assay [4]; 87% in assay [5]. The Drug suppression of serum in assay [6] was -3.38%; in assay [7], -2.8%; in assay [8] it was -59.7%; in assay [11] it was -52%; in assay [12] it was -4.92%; in [13], -4.78%. Moreover, in assay [24], the Drug suppression of serum was -45.8. Further, the Drug Suppression of Cal Signal at 500 pg/mL in assay [9] is -7%; in [10], -5%; in assay [14], -14%; in [15] it was -3%; in assay [16] it was -2%; in assay [17] it was 6%. Besides, the Drug Suppression of Cal Signal at 500 pg/mL is -7% in assay [18]; 16% in assay [19]; -18% in assay [20]; -8% in [21]; -9% in [22]; -11% in assay [23].
